Tests used:
[1] = target: human Axl-Fc (human) (UniProt P30530); experiment: competition ELISA; human Axl-Fc captured on anti-human IgG Fc plate, blocked ligand Gas6 detected with biotinylated anti-Gas6 and streptavidin-HRP
[2] = target: human Axl on the cell surface (HUVEC, A549, H1299, Baf3Axl cells) (human, UniProt P30530 26-894); experiment: FACS on HUVEC; cells treated with antibody, then Gas6; blocked ligand Gas6 detected with biotinylated anti-Gas6 and streptavidin-PE
[3] = target: T1, human Mer-Fc (human, UniProt Q12866 26-499); experiment: ELISA; receptor-Fc captured on anti-human IgG Fc coated plate
T1 construct: not shown: Fc part not described
T1 sequence (looked up): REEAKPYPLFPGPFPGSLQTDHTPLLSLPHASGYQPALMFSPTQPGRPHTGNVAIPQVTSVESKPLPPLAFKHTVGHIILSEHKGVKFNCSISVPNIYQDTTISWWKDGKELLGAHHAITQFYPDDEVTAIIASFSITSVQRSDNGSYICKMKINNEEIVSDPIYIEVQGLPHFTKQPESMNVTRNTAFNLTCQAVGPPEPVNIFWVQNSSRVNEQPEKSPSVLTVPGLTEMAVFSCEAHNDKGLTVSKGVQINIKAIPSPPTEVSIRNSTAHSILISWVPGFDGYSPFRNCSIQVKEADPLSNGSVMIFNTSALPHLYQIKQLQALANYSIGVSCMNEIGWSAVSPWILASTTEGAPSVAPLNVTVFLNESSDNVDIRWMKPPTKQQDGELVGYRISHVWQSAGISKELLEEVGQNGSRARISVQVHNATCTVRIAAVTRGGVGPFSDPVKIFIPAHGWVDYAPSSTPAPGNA
Description: (§1) Plates were coated with anti-human IgG Fc, and then incubated with human Axl, Mer, Tyro3 Fcs, mouse or cynomolgus AxlFcs. […] FIG. 7D: ELISA. Plates were coated with anti-human IgG Fc and incubated with human Axl-Fc. […] FIG. 7E: FACS. […] A549 cells were incubated with 1 μg/mlYW327.6S2 for indicated time, and cell surface Axl expression was determined by FACS (upper panel), and total protein expression by Western Blotting analysis (lower panel). […] Phosphorylated Axl was measured by ELISA (upper panel), and phosphorylated Akt by Western Blotting analysis (lower panel). […] Cell viability was measured by CellTiter Glo assay.
(§2) ELISA assays were performed as follows: goat anti-human IgG Fc coated plates were blocking with 0.5% BSA, PBS, 0.05% Tween 20 (PBST). For cross reaction assay, coated plates were incubated with human Axl.Fc, mouse Axl.Fc or human Mer.Fc, Tyro-3.Fc for 1 hr at room temperature, washed four times in PBST, incubated with anti-Axl mAbs and HRP-conjugated anti-mouse Ig. […] Plates were washed four times in PBST, incubated with biotinylated anti-mGas6 and strepavidin-HRP. Secreted Ang-2 and DKK3 was measured using R&D ELISA kit, according to the manufacturer's instruction.

[4] = target: T2, human Tyro3-Fc (human, UniProt Q06418 41-428); experiment: as above
T2 construct: not shown: Fc part not described
T2 sequence (looked up): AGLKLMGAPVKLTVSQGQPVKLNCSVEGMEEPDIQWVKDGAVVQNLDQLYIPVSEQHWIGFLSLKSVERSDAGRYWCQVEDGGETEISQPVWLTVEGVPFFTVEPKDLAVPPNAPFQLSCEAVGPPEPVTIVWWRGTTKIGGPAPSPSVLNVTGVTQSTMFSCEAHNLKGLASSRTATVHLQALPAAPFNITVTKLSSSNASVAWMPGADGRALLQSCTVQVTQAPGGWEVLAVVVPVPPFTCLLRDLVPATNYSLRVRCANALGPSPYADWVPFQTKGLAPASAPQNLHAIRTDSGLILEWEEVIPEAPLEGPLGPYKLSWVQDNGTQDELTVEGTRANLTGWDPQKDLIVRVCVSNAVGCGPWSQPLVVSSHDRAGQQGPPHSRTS
Description: as §1, §2

[5] = target: human Axl ECD-His protein (human) (UniProt P30530); experiment: SPR (BIAcore-3000): IgG captured by anti-human IgG, human Axl ECD-His injected
[6] = target: T3, murine Axl ECD-Fc fusion protein (murine; human, UniProt Q00993 19-445); experiment: SPR (BIAcore-3000): murine Axl ECD-Fc captured by anti-human IgG, anti-Axl Fab injected
T3 construct: extracellular domain; also called murine Axl ECD human IgG fusion protein; mouse Axl.Fc; not shown: human IgG Fc
T3 sequence (Q00993 19-445): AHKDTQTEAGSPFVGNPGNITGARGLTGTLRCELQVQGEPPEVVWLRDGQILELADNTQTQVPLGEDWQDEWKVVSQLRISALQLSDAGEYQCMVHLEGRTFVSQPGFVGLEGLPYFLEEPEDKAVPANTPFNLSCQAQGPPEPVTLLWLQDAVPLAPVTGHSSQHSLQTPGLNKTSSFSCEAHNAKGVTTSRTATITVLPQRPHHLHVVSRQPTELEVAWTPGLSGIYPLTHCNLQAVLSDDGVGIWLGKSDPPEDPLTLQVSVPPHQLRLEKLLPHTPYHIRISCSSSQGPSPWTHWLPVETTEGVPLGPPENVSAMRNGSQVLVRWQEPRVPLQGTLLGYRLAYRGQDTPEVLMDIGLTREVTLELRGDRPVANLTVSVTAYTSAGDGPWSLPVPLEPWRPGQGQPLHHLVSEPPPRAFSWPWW
Description: Association rates (kₒₙ) and dissociation rates (koff) were calculated using a simple one-to-one Langmuir binding model (BIAcore Evaluation Software version 3.2).

human Axl-Fc (human), sequence (P30530 other isoform, or with tags, fused parts or gaps, form in doubt): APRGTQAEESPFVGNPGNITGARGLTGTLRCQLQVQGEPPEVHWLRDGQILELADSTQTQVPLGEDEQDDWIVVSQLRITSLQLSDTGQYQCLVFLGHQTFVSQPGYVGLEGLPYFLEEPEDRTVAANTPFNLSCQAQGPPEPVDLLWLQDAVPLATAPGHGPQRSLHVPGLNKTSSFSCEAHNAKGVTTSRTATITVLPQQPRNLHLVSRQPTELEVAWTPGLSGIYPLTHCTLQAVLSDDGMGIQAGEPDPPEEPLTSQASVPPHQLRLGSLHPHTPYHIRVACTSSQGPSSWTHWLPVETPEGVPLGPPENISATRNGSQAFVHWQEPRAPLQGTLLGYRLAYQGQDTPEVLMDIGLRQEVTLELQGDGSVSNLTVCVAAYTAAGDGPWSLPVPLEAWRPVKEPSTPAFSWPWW
human Axl on the cell surface (HUVEC, A549, H1299, Baf3Axl cells), sequence (P30530 other isoform, or with tags, fused parts or gaps limits assumed): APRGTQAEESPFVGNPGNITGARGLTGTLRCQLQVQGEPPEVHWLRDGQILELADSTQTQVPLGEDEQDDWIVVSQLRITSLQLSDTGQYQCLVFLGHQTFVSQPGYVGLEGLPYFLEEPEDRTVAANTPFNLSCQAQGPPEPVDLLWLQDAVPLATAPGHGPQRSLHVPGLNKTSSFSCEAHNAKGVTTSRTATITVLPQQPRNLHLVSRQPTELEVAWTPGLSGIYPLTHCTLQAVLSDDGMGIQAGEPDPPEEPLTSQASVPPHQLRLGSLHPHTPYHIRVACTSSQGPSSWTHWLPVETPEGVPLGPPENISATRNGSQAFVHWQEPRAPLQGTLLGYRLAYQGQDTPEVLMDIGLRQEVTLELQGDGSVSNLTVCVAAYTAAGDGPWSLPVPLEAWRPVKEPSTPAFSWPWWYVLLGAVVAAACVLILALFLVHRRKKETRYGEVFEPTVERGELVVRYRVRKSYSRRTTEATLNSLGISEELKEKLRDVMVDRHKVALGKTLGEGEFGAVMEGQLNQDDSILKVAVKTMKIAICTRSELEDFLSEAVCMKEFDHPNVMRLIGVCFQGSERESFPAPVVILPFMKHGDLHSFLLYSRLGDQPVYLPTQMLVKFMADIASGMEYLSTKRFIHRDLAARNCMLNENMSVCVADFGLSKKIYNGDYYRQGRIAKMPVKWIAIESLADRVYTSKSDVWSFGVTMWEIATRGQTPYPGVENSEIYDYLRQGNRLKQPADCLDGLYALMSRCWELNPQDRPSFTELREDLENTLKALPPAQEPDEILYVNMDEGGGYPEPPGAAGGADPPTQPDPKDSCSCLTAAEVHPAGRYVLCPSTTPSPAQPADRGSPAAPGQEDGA

B1: Affinity matured Axl mAb YW327.6S2 (full-length human IgG) (antibody, V domains shown)
VH: EVQLVESGGGLVQPGGSLRLSCAASGFSLSGSWIHWVRQAPGKGLEWVGWINPYRGYAYYADSVKGRFTISADTSKNTAYLQMNSLRAEDTAVYYCAREYSGWGGSSVGYAMDYWGQGTLVTVSS
VL: DIQMTQSPSSLSASVGDRVTITCRASQDVSTAVAWYQQKPGKAPKLLIYSASFLYSGVPSRFSGSGSGTDFTLTISSLQPEDFATYYCQQSYTTPPTFGQGTKVEIK
notes: No sentence ties these to this name, so they are not used; also called YW327.652
IC50 (read off the curve) [1]: 0.02 µg/mL | IC50 (read off the curve) [2]: ~0.1 µg/mL | binding result [3]: no binding (tested: concentration not shown) | binding result [4]: no binding (tested: concentration not shown) | Kd [5]: 1000 pM

B2: YW327.6S2 Fab fragment (Fab, V domains shown)
VH: B1 VH
VL: B1 VL
notes: The result sentence names only the mAb; also called anti-Axl Fab fragment; YW327.652
Kd [6]: 545 pM
